From US6200577A, “Anti-herpesviral agents and assays therefor” (priority 1996, dated 2001)
“Also recorded” adds a separate entry of the source.

Assays:
[1] = Solubility of synthetic peptides in buffer; format: physicochemical; conditions: peptides dissolved in 20 mM Tris-HCl, pH 8.0, 250 mM NaCl; unpurified preparations
Protocol: Synthesis and Purification of Oligopeptides. Peptides were synthesised by continuous flow Fmoc chemistry (Atherton and Sheppard, 1989; McLean et al., 1991) and, where stated in the text, were purified by preparative reverse-phase HPLC (Owsianka et al., 1993). The Mr values of peptides were determined by fast atom bombardment mass spectrometry (M-Scan) and corresponded to the predicted values. Peptides were dissolved in 20 mM Tris-HCl, pH 8.0, 250 mM NaCl and centrifuged at 11,500 g for 1 minute prior to use. […] Precipitates were removed by centrifugation before use.

VP16 = target: T1, VP16 (Human herpesvirus 1, UniProt P06492); assay: ELISA of direct binding of VP16 to plate-coated peptides; parameters: species or system HSV-1; conditions: wells coated with peptide up to 500 μg/ml; VP16 1.6 μg/ml; FIG. 10
T1 construct: Plasmid pETVP16 was used to express full-length VP16 under the control of the T7 RNA polymerase promoter; made in house; host or cells: E. coli BL21(DE3)
T1 sequence (P06492 whole entry): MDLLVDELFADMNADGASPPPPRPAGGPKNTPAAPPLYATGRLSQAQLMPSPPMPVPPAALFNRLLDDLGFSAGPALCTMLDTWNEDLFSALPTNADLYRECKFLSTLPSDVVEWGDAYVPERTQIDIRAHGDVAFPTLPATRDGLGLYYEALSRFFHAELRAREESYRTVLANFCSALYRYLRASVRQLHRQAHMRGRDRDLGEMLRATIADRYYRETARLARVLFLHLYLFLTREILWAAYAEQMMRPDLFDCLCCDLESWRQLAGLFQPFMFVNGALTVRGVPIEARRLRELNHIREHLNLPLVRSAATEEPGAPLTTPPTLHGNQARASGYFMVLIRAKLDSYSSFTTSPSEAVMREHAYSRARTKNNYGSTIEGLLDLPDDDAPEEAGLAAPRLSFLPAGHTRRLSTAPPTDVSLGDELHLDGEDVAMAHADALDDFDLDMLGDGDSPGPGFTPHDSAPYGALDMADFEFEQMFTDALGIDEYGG
Protocol: FIG. 10 Binding of VP16 to peptides. Microtitre plates were coated with 5-fold dilutions of peptides ranging from 500 μg/ml to 1 μg/ml and blocked with PBS/10% NCS. VP16 was then added to a final concentration of 1.6 μg/ml and detected with LP1. The legend for the peptides added is shown to the right of the graph.
(§1) Dilutions of proteins in PBS were coated overnight onto flat bottomed micro-titre plates (Dynatech) at 37° C. and then blocked with either 2% BSA or 10% new-born calf serum (NCS) in PBS for 1 hour at 37° C. Specific binding of a second protein to the plate-bound protein was performed for 1.5-2 hours at ambient temperature. a Excess secondary protein was removed by washing four times with PBS, 0.3% Tween 20. Bound protein was detected by incubation for 1.5-2 hours with LP1 antibody in PBS, 1% gelatin or PBS, 2% NCS. The bound antibody was detected by incubation for 1 hour at ambient temperature with anti-mouse antibody conjugated to HRP (1:500) and visualised with Smg/ml enzyme substrate 2,2'-azino-bis(3-ethylbenzthiazoline-6-sulphonic acid) (ABTS; Sigma) in citrate-phosphate buffer containing 6 μl hydrogen peroxide in a total volume of 20 ml. Optical densities were measured on a Titertek Multiscan PLUS instrument.
To examine whether VP16 could bind directly to the peptides, wells were coated with each peptide (A-J) at a range of concentrations from […] to 500 μg/ml and the plate was then blocked with […]. […] Nonetheless, the data for peptides D and E implicate direct binding of these peptides to VP16 as the mechanism for inhibiting its interaction with VP22. Peptide H also was active in experiments which prevented gB binding to VP22trunc [Section 4 (iii)] and thus also forms an aspect of the invention.

[2] = target: T2, VP16/VP22trunc interaction (Human herpesvirus 1, UniProt P06492); assay: ELISA of peptide inhibition of VP16 binding to VP22trunc; parameters: species or system HSV-1; conditions: D and E pure preparations, effect at 100 and 500 μg/ml; VP16 1.6 μg/ml; 160 ng VP22trunc; FIG. 9
T2 construct: Plasmid pETVP16 was used to express full-length VP16 under the control of the T7 RNA polymerase promoter; made in house; host or cells: E. coli BL21(DE3)
T2 sequence (P06492 whole entry): as above
Protocol: FIG. 9 Inhibitory effect of peptides D and E on the VP22trunc-VP16 interaction in ELISAs. Microtitre plates were coated with 160 ng of VP22trunc and blocked with PBS/10% NCS. Before addition to the wells, five-fold dilutions of the peptides, ranging from 500 μg/ml to 1 g/ml, were incubated with VP16 (1.6 μg/ml). Bound VP16 was detected with LP1 at a dilution of 1:1000. The legend for the peptides added is shown to the right of the graph. Values are shown relative to those obtained in the absence of the peptide.
as §1
To adopt a more quantitative approach, an ELISA for VP16 binding to VP22trunc was developed. Optimal conditions were determined by coating wells with various quantities of VP22trunc followed by blocking with 2% BSA. Plates were then incubated with dilutions of VP16 and the bound VP16 detected with LP1.
The studies presented above have provided strong evidence in support of peptide inhibition of the interaction between VP16 and VP22. However, quantitative analysis of the ability of peptides to block any interaction is difficult to perform by the above methods. Therefore, using the ELISA system described in Results Section 2(iii) with the exception that PBS/10% NCS was utilised as a blocking agent, the inhibitory effects of peptides D and E were examined. This modification arose due to nonspecific binding of the peptides to wells when BSA was used for blocking (data not shown).

[3] = target: T2, VP16/VP22trunc interaction; assay: Far Western analysis of peptides blocking VP16 binding to immobilised VP22trunc; parameters: species or system HSV-1
Protocol: FIG. 7 Far Western analysis of the ability of peptides to block the interaction between VP16 and immobilised VP22trunc. Purified VP22trunc was added to partially purified extract of VP16 and the sample run on a 12% polyacrylamide gel. Proteins were then transferred to nitrocellulose membrane and the blot was cut into strips, with each strip containing approximately 1 g of VP22trunc. In (A), strips were pre-incubated with 1 mg of each of the following peptides: lane 2, no peptide, lane 3, peptide C; lane 4, peptide D; lane 5, peptide E; lane 6, peptide F; lane 7, peptides D and E; lane 8, peptides C and F. In (B) strips were pre-incubated with 1 mg of each of the following peptides: lane 2, no peptide, lane 3, peptide C; lane 4, purified peptide D; lane 5, purified peptide E; lane 6, peptide F. 24 g of pure VP16 was then added to strips 2 to 8 in (A) and strips 2 to 6 in (B), followed by incubation with LP1 antibody (1:1000 dilution). As a control, portions of the blot were incubated with LP1 or the 9220 antibody at a dilution of 1:1000 (lane 1 for LP1 in A and B; lane 9 in A and lane 7 in B for 9220). The apparent molecular weights of VP16 (65 KDa) and the dimer (32 KDa) and monomer (16 KDa) forms of VP22trunc are shown.
Following electrophoresis, proteins were electrotransferred to either Hybond or ProBlott (Applied Biosystems) membrane and the membrane was incubated in renaturation buffer (50 mM Tris-HCl, pH 8.0, 150 mM NaCl, 10% glycerol, 1 mM DTT) at 4° C. for 5-6 hours.
For membranes probed with either VP16 or VP22trunc, blocking was performed overnight as described for Western blot analysis. Probing with epitope-tagged VP22 or VP16 was performed in 20 mM Tris-HCl, pH 8.0, 250 mM NaCl for 1.5 hours at ambient temperature. Excess probe was removed by washing 4 times (10 minutes per wash) in 20 mM Tris-HCl, pH8.0, 250 mM NaCl, followed by incubation with the appropriate antibody at a dilution of 1:1000 in TTBS/1% gelatin for 1.5-2 hours. Bound antibody was detected as described for Western blot analysis.
Based on the studies with soluble VP16 and VP22trunc presented above, only a restricted number of peptides were examined by Far Western analysis to identify those that may prevent binding of VP16. Thus, VP22trunc was added to a crude extract of bacterially expressed VP16 and the proteins were electrophoresed on a polyacrylamide gel followed by transfer to a membrane. […] Before the addition of VP16 the blot strips in lanes 3 to 8 were incubated with crude preparations of peptides C, D, E, or E' as well as mixtures of either 0 and E or C and F. When the blot strips were incubated with peptides C and F either singly or in combination, VP16 bindincg to VP22trunc was not prevented (FIG. 7A, lanes 3, 6 and 8).

Sequence	Solubility [1]	Direct binding of VP16 to plate-coated peptide (ELISA) (VP16)	Inhibition of VP16 binding to VP22trunc in ELISA [2]	Blocking of VP16 binding to immobilised VP22trunc (Far Western), crude peptides ([3]; strips pre-incubated with 1 mg of crude peptide, FIG. 7A)	Blocking of VP16 binding to immobilised VP22trunc (Far Western), repeat with purified peptides D and E ([3]; strips pre-incubated with 1 mg peptide, D and E purified, FIG. 7B)
DVVQDVPDPERKTPRVTGG [Peptide J]	soluble	binding did not occur	–	–	–
GSHMARTAPTRSKTPAQGLA [Peptide A]	soluble	binding did not occur	–	–	–
KTPAQGLARKLHFSTAPPNP [Peptide B]	soluble	binding did not occur	neither peptides B, C nor F had any effect	–	–
NLLQRANELVNPDVVQDVPD [Peptide I]	soluble	binding did not occur	–	–	–
PRTDEDLNELLGITTIRVTV [Peptide G]	partly; also recorded: partially insoluble	binding did not occur	–	–	–
RMAAVQLWDMSRPRTDEDLN [Peptide F]	soluble	binding did not occur	neither peptides B, C nor F had any effect	not prevented	had no effect
